Key:
[1] = target: ctSTIM1 cysteine mutant at position 337 (C437S background) (human) (UniProt Q13586); test: FRET or BRET; single-molecule FRET (TIRF), symmetric inter-subunit: one cysteine mutant labelled with Alexa Fluor 555 and 647 mixed 1:1; single ctSTIM1 dimers in liposomes tethered by biotin-neutravidin; 20/150 TBS pH 7.4, room temperature
[2] = target: ctSTIM1 cysteine mutant at position 312 (C437S background) (human) (UniProt Q13586); test: as above

Substance | inter-subunit FRET efficiency [1] | inter-subunit FRET efficiency [2]
ctSTIM1 cysteine mutant at position 337 (C437S background) (from UniProt Q13586 233-685) (domain or fragment) | 0.9 | 
ctSTIM1 cysteine mutant at position 312 (C437S background) (from UniProt Q13586 233-685) (domain or fragment) |  | 0.9
